The values that follow come from paper PMC4813732.

Assay [1] concerns the target Human thrombin (human).
Assay [2] has as its target Human thrombin (human). This is another data set of the same source.

As to “α-form of recombinant human antithrombin bearing sialylated biantennary complex-type N-linked oligosaccharides lacking a core fucose (from UniProt P01008 33-464) (natural protein)”, in the assay with Human thrombin (human) [1], the second-order rate constant of thrombin inhibition, with heparin (residual thrombin activity on S-2238, 25°C, pH 7.4) was 1.9e+07 /M/s. The heparin cofactor activity (residual thrombin activity at the end of thrombin inactivation in the presence of heparin; phAT as standard) with Human thrombin (human) [2] stood at 5.49 IU/mg.
Take “α-form of recombinant human antithrombin bearing high-mannose-type N-linked oligosaccharides (from UniProt P01008 33-464) (natural protein)”: in the assay with Human thrombin (human) [1], the second-order rate constant of thrombin inhibition, with heparin (residual thrombin activity on S-2238, 25°C, pH 7.4) was 1.9e+07 /M/s and the second-order rate constant of thrombin inhibition, without heparin (residual thrombin activity on S-2238, 25°C, pH 7.4) was 6600 /M/s. Moreover, in the assay with Human thrombin (human) [2], the heparin cofactor activity (residual thrombin activity at the end of thrombin inactivation in the presence of heparin; phAT as standard) came out at 5.83 IU/mg.
On the same counts, the results for “β-form of recombinant human antithrombin bearing high-mannose-type N-linked oligosaccharides (from UniProt P01008 33-464) (natural protein)” are 1.9e+07 /M/s, 6100 /M/s and 5.8 IU/mg.
The like results for “β-form of recombinant human antithrombin bearing sialylated biantennary complex-type N-linked oligosaccharides lacking a core fucose (from UniProt P01008 33-464) (natural protein)” were, in that order, 2e+07 /M/s, 7300 /M/s and 5.66 IU/mg.
Take “latent form of recombinant human antithrombin (from UniProt P01008 33-464) (natural protein)”: the heparin cofactor activity (residual thrombin activity at the end of thrombin inactivation in the presence of heparin; phAT as standard) with Human thrombin (human) [2] is 0.35 IU/mg.
